Measured values taken from US20160237419.

Columns and labels:
[1] = target: human wild type trypsinogen-1 (PRSS1 wt)
[2] = target: T1, supercharged variant of human trypsinogen-1 (PRSS1 sc)
T1 chain: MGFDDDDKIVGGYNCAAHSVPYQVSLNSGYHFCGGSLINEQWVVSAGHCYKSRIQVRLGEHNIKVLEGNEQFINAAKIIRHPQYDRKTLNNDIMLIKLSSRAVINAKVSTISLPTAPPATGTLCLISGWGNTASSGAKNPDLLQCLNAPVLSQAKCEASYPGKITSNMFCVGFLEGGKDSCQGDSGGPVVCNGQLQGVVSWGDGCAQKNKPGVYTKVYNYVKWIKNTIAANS

B1: human enteropeptidase light chain sc C112S (hEPI-sc-C112S) (protein)
chain: IVGGSDAKEGAWPWVVGLYYDDRLLCGASLVSSDWLVSAAHCVYGRNLEPSKWTAILGLHMKSNLTSPQTVPRLIDEIVINPHYNRRRKDNDIAMMHLEFKVNYTDYIQPISLPEENQVFPPGRNCSIAGWGTVVYQGTTADILQEADVPLLSNERCQQQMPEYNITENMICAGYEEGGIDSCQGDSGGPLMCQENNRWFLAGVTSFGYECALPNRPGVYARVSRFTEWIQSFLH
activation of trypsinogen by enteropeptidase (trypsin activity on CBZ-GPR-pNA; fluorescence of FRET peptide 7) [1]: Both PRSS1 versions can be activated to similar levels | activation of trypsinogen by enteropeptidase (trypsin activity on CBZ-GPR-pNA; fluorescence of FRET peptide 7) [2]: Both PRSS1 versions can be activated to similar levels, although PRSS1 sc shows a slightly slower activation profile
